The values that follow come from publication PMC7658486.

In this experiment the target is rainbow trout IL-2 (IL-2A), FLAG-tagged, from insect cells (rainbow trout (Oncorhynchus mykiss)). The experiment is described as follows: SEC; Superose 12 column, PBS (-), 0.5 ml/min, 10-15 μg protein purified from insect cell supernatant; calibrated with standard proteins. For orientation: In gel filtration, larger molecules generally elute earlier.

The term stoichiometry N denotes a count of units in the complex or per binding partner. Take “rainbow trout IL-2 (IL-2A), FLAG-tagged, from insect cells (ligand)”: the stoichiometry N is 2.
